Assay results from PMC7614494.

Assays:
Mouse saposin A (mouse) [1] = test: crystal structure; SapA-PC preparation (100 mM citrate pH 4.0, 150 mM NaCl) mixed with acid ceramidase; sitting drops at 293 K, 23.25% PEG 3350, 0.1 M Bis-Tris pH 5.6; only SapA found in the crystal; 3.17 Å
Mouse saposin A (mouse) [2] = test: SEC-MALS; SapA after incubation with DDM-solubilised phosphatidylcholine (PC:SapA 30:1); Superdex 200 Increase 10/300 GL, 100 mM citrate pH 4.0, 150 mM NaCl, room temperature; protein conjugate analysis of three regions of a heterogeneous peak

Mouse saposin A (natural protein)
stoichiometry N (Mouse saposin A (mouse) [1]): 4 | stoichiometry N (Mouse saposin A (mouse) [2]): 3 to 4
